Values quoted from earlier work in publication PMC4026351.
Read-outs that look alike come from different tables or passages of the source.

Experiments:
BtuB (Escherichia coli) [1] = biological target: BtuB (Escherichia coli) (UniProt P06129)
BtuB (Escherichia coli) [2] = biological target: BtuB (Escherichia coli) (UniProt P06129); remark: listed apart in the source

Sequence of UniProt P06129 (P06129 21-614): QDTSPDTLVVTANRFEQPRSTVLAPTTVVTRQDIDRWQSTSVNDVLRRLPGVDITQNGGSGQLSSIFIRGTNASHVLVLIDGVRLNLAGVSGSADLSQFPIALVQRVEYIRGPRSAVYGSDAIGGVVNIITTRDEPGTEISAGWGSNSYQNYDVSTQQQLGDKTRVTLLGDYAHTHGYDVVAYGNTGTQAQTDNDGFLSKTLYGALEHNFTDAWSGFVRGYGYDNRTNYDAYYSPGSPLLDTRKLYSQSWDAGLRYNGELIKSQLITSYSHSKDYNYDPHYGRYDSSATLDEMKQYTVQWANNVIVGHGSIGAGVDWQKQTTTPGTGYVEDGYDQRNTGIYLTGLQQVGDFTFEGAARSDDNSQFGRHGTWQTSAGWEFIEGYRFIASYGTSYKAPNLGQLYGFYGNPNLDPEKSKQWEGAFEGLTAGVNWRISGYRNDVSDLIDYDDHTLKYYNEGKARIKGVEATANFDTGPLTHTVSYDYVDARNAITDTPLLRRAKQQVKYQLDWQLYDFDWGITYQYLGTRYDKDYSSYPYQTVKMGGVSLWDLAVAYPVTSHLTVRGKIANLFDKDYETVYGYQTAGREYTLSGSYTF

## colicin E2 R-domain (from UniProt P04419)
BtuB (Escherichia coli) [1]
  Kd: 1.5 nM

## colicin E3 R-domain (from UniProt P00646)
BtuB (Escherichia coli) [2]
  Kd: 1.5 nM
